Values joined by “and” are separate entries in the source; they are usually repeats but may differ in a detail not shown here. Equal values may be shown once. Read-outs that look alike come from different tables or passages of the source.
Legend:
[1] = biological target: αβ-tubulin (unpolymerized, as used in gel filtration and analytical ultracentrifugation) (yeast) (UniProt P09733)
[2] = biological target: αβ-tubulin (unpolymerized, as used in gel filtration and analytical ultracentrifugation) (yeast) (UniProt P09733); assay: AUC
[3] = biological target: TOG1-TOG2 of Stu2p (yeast); assay: AUC
[4] = biological target: TOG1-TOG2 of Stu2p (yeast); assay: AUC; remark: listed apart in the source

Kd [1] [nM] | stoichiometry N [2] | stoichiometry N [3] | stoichiometry N [4] | Substance
200 to 300 | 1 | – | – | TOG2 domain of Stu2p (domain or fragment)
– | – | 1 | 1 and 2 | αβ-tubulin (unpolymerized, as used in gel filtration and analytical ultracentrifugation) (from UniProt P09733 1-447; P02557 1-457) (complex)

Reference: PMC3734851
